Results on 18 sequences are retold here after the DeepSol protein solubility set.

The series in a line: soluble on expression in E. coli; label from the status in PepcDB or PDB records.
As to “MGSDKIHHHHHHMAGEDRDMETETETVCPGNTAGRFAAGEDPAKRDQILAGAWRVFKLKGFDAASMNDITREAGVSKGTIYVYFSNKEDLFAALVDHHRQEFATSMRNILAGTEEVRKGLEQFGKAFANKMICSDMIPAMRSVIGVIDRMPKLAQRFFIAAPNNVRTVLQDFIEHHIALGHLKVDDVELAARQYIELSTGTFFKLRLFGEIDGPVPEEELDRVIASAIKVFMAAYGTDKV”, the “soluble on expression in E. coli” value is on record as “not soluble”. Take “MAHHHHHHMKENYMIRHLFKKYGLKCYNSMSKGLLSNIRNGNSIVLYEKNVNKNLMNLLYKKHYNTYKNRVFNSAMYNNTPSNYMNNPENNNMNHLQNNSNYKYENPNNYYQPKYNNNLNNETNENNTTYQYFSIFGSTAMCLIKPIFPDYITNKNKVTIYGKGGFQFVFMRKQSNSNKYDKNNKMNIFIKINSLSNVLSLNDVEKLKNPIIIKGSNNNYLTIDKHKEKKDHIVIKYKYQPSNSPENNFNDMNNMDTDINENMIINDVNDEKRNNFEELHVSFSFSEFLLFQKAANLLLPQLIGWAKQY”: the “soluble on expression in E. coli” value is “not soluble”. On to “MFSPDTNSEFYDDFYTKYNTNMAPTTSTFNAQPRLSLDSGLGLTNDSFYSTDLNETHLMDISAGNASTSFQSQPPPQLESSPPTKWARIRTPPNRKKKISHEGPNQEALPPGFNLFSPPSRKKIKTAFSSPPPKSMKTPDSLRKSIRISSPSPFKVTFSKTPLKLSNNENVTGIHIGRSGTYYNKQVTGSASKRCLLPSKPDGFTFLGSPGNSDVLDFPLQTTFEGFGDLDTPAKINAALEVNNDDSMDYYQYAGMIETSSSLATYTNSTGPLVENHARNLKSVPISRTASRNLMKISRKSVEEPVPEPQAVHVEPVIEKPTKISAKKEKEQKKSAAKEAALKEAKEKEMRIWKLAPFETPKKEVPLYSGRWLVISTGRTLAQQELFSDAKSFFKANPPPAPRAPQAPELASGPRRIPTIQRVTLFKHRYRSPRD”, for which the “soluble on expression in E. coli” value is given as “not soluble”.

Take “MSLADISVIQSLPLSGSQAVTGRALNAGARLYFDWLNLNGGINGETIRLVARDDEQKIEQTVRNVRDMARVDNPVALLTVVGTANVEALMREGVLAEARLPLVGPATGASSMTTDPLVFPIKASYQQEIDKMITALVTIGVTRIGVLYQEDALGKEAITGVERTLKAHALAITAMASYPRNTANVGPAVDKLLAADVQAIFLGATAEPAAQFVRQYRARGGEAQLLGLSSIDPGILQKVAGLDAVRGYSLALVMPNPGKSVNPVIREFNRARAAVGAKDVDLSFRAVEGFVAAKVLAEAIRRAGPKPTREQVRHALTELRDYDVGGGFTVDFTDRSRPGSHYIELGVVGPNGLVIQEGHHHHHH”: the “soluble on expression in E. coli” value is on record as “soluble”.

In the case of “MGSDKIHHHHHHMKPRACVVVYPGSNCDRDAYHALEINGFEPSYVGLDDKLDDYELIILPGGFSYGDYLRPGAVAAREKIAFEIAKAAERGKLIMGICNGFQILIEMGLLKGALLQNSSGKFICKWVDLIVENNDTPFTNAFEKGEKIRIPIAHGFGRYVKIDDVNVVLRYVKDVNGSDERIAGVLNESGNVFGLMPHPERAVEELIGGEDGKKVFQSILNYLKR”, the “soluble on expression in E. coli” value was “not soluble”.

For the sequence “MGSDKIHHHHHHMPNDTHTTQANVDPAEIAKFEAMAQSWWDPNGEFKPLHQLNPLRLNYIDSTAGGIFAKKVLDVGCGGGILSESMAKLGANVDGIDMGEAPLEVARLHALESGVMVNYHKTTAEAHSASHANHYQVVTCMEMLEHVPDPQSVIQACCDMVEPGGFVFFSTINRNMLSYVQAILGAEYLLKLLPIGTHDHSKFIRPSELMAMVDNTDLICKDALGISFNPLTSIFSYTKSLEVNYMIATQKMAD”, the “soluble on expression in E. coli” value is given as “not soluble”.

As to “MNDAVEVELEPVTYHYFNAGAAGKDLNTNETYIGKMLEEKTGVNFKVEHLVGDINQRTGVMIASGDYPDVIVPDAAIDALLDAGAFIPLNDLLEEHGPNLLEAYGDYLHMFTHDDGNIYYIPFGATVNEFQPNPNIDQGAFWIQRGILKEYGFPEINTLDEYLDIITRYAKENPEIDGMRTIPFTGLTYDWRFFAFTNVPNHLAGYPNDGGVMVDMDTHEASVYADSEYAKRWLKALNELNAEGLLDQEMFVMNYDEYLEKLSSGRVLGFFDYGWQFGTASNALRDAGNPDREYMALPVVFDEGIKDQYIDPPAFTGNRGVGITVNAENPERIIQFWDELIKEDNQRLVMWGIEGEHYNVDENGRFYQTEEQIEIVNNQNFRDEFGMTTFEWSWPRINGTFSDGNAVEARRQPEVAFASYNDDDKEYLEAYGISTFAELFSEPDERPWYPAWSANIEQGSPQQIFEERADEILRRHYARIVLADPADFDKEWDDFVQAYRSLDVDAYENFFTEVVQARVRGEWLEHHHHHH”, the “soluble on expression in E. coli” value is listed as “soluble”.

Regarding “MGKHKVGAVFLAGVLAMGTVMTGCSGKDETEGKTVIEMVQYKPEAVDIFEQFQDEFNATHDDIYLKIDSPNDAMTILKTRFIREDNPDIIGIGGDINYSNFLDADMLMDISDFEGLNDIKEKYLEMNKDLEYVPKDGVYAVPYMANAAGILFNRDMFEEHGWEVPTTWTEFTNLCDQIQSEGIQPLYFGFKDTWTTLAPWNAIAVSLCDSDLTYQVNSGKTTFAENYREVAEKEKALLTYGQKDPVSQGYNDACTAFARGASAMFTIGSYAISQIKSVNPDMNIGSFVFPANEDADKNVLNSGNDLMFCVMKDCKNKEAAYEVLSYMLEDENVKKYLNAQSAVPCKKGDFEVTPELEEMRDYIENGIVADYQDHHYPSEMSVDAMIQTYLMDDSADATDTFMKRFDKEWIRYNRDIVAKVKAYEEGNDHE”, the “soluble on expression in E. coli” value is “not soluble”. On to “EQAEAQLAELDLLASMFPGENELIVNDQLAVAELKDCIEKKTMEGRSSKVYFTINMNLDVSDEKMAMFSLACILPFKYPAVLPEITVRSVLLSRSQQTQLNTDLTAFLQKHCHGDVCILNATEWVREHASGYVSRDTSS”, for which the “soluble on expression in E. coli” value is given as “soluble”. “MGSDKIHHHHHHVNPLLDSLQPYPFEKLRALFKDVTPNAGLAHISFGIGEPKHPTPALIRDAVVASLGGLSAYPATSGSPALRESIAKWVTQRYNLPPVDPATQVLPVSGSREALFSLAQTVLDPQKNAGGEPAIVLCPNPFYQIYEGAAILAGAQPYFVNSDPARNFACDYSAVPAEIWARTQLLYVCSPGNPTGAVLTLDDWRELFALSDRYGFVIASDECYSEIYFDEAKPPLGGLEAAHKLGRGFERLVMLSSLSKRSNVPGMRSGFVAGDAAILKDFLLYRTYHGAALSTVFQNASIAAWNDEAHVRENRAKYLQKFSTVTPMLAEVLDVRLPDAAFYLWADVSRTGLTDTVFAQRLYADYNVTVLPGSFLARTAHGVNPGRNFVRMALVADVDECTQGAQRIVDFCRALAG”: the “soluble on expression in E. coli” value is reported as “not soluble”.

Regarding “MSAKNVLKMANRNSANKRDILGDLLSLSSNKTVNLNEMAHGQGKRKMASIDGQKENPKRIKMSQHMTAKEVKIPLLRTPDEEARKIEKLRREARIKRSKEVHYDAAEQQQIMMNYEWTVQMEEQEKLRKKVEKKH”, the “soluble on expression in E. coli” value is on record as “not soluble”. For the sequence “TTILKHLPVGQRIGIAFSGGLDTSAALLWMRQKGAVPYAYTANLGQPDEEDYDAIPRRAMEYGAENARLIDCRKQLVAEGIAAIQCGAFHNTTGGLTYFNTTPLGRAVTGTMLVAAMKEDGVNIWGDGSTYKGNDIERFYRYGLLTNAELQIYKPWLDTDFIDELGGRHEMSEFMIACGFDYKMSVEKAYSTDSNMLGATHEAKDLEYLNSSVKIVNPIMGVKFWDESVKIPAEEVTVRFEQGHPVALNGKTFSDDVEMMLEANRIGGRHGLGMSDQIENRIIEAKSRGIYEAPGMALLHIAYERLLTGIHNEDTIEQYHAHGRQLGRLLYQGRWFDSQALMLRDSLQRWVASQITGEVTLELRRGNDYSILNTVSENLTYKPERLTMEKGDSVFSPDDRIGQLTMRNLDITDTREKLFGYAKTGLLSSSAASGVPQVENLENKGQSVEHHHHHH”, the “soluble on expression in E. coli” value is “soluble”. The result for “MGSDKIHHHHHHMSSLLQQFHDEISLRGYSARTRNAYLYAITQLQHYANQPLDNITDEQLTAYFRYLNLEWHHSRATLKLQLNGIHFFYEHVLKRDFTIQLSLPKRPHKLPQLLSCQDIAALLYHCQNLKQRAMLALCYGCGLRVSELTHIKVADIDGQRQLLKVCQGKGACDRWVILSPTLLILLRQYWQAYHPVEWLFASTYHDVVYPLHESTFRKALAKAARLASITKPCSPHSLRHAYATHQLQAGMPLHQLQAQLGHHSIKSTERYLHWSPELGHQGCDLLASLGGMPWQPPTI” reads “not soluble”.

Take “MGSDKIHHHHHHMNEKELAGWFPQAKLSQEADAQSLALGDGRYLNLADADLTERERYLLSLLSHPQEQKPSSPWQSYLHGQSSLPQAVEAIQFIHVHLWSQKDAQLDAWQTMMTDLLPSQLAQVQLSSQDYLFIIEQSRWTDYQTILADTLSALEFDFGLRLTFLVGQVWSRQLADRWSQLYQAEAALFAHWRAHYHQSTVLSFSQLFLWGQGRAGLEFGMIKASMLQLIDQQDMQDIILALWTEGAVVTKTAQILYIHRNTLQYRLDKWQDLTGLQLKDLTDLSFCYQVLLDRLF”: the “soluble on expression in E. coli” value was “not soluble”. Turning to “MPTPKAFALLGPTAGGKTALALKIAETLPVEIISLDSALVYRDMDIGTAKPSASERAFVPHHLIDIIPPTESYSAARFVEDCTRLVGEISSRGRFALIVGGTMMYFRALTQGLNDLPEADACLRADLDEQKQMYGLDFLYRTLQKVDPETACRLKPNDSQRIGRALEVYYLTGKPMSTHLGSLTSHTLPFDLHTAALIPENRARLHENIALRFHLMLEQGFIGEVENLRRRYPGLTAYSPAIRCVGYRQAWKYLDGKTDFPAFVEKGIAATRQLAKRQLTWLRKTPLDCVADPFSDCTSCTRLIEAAKRFFGALEHHHHHH”, the “soluble on expression in E. coli” value is “soluble”. Take “MGSDKIHHHHHHALLGTTGLLHAPTADMQRDKTFLFGGNYLNTHPLSTHFRSSEVGYTFNYYINITIFPWLEVSYICTLVHADHGSTYFPEQSWGKFTNQDRAFSARLRLWKEGWWKEWTPQIVLGLDDPTSHADHGGGELVSGNTSGSNNYATRYYLAVTKHLDVQNIGEWGIHAAFVYGNAKGIEHYKRPSFGTNFRFQLLGDQPLIKVVNNLNLMAEYDARTVNIGAHYQLWKDHINLIAELNNGKYFSGGIYFKIHLK”: the “soluble on expression in E. coli” value is reported as “not soluble”. Turning to “AIADEVKECLRDFPKEARELYLNDAVPYLDEPLSPLQFYRDWIGPNKPCIIRNAFNDWPALSKWNPTYLREKVGSKVISVAVTPNGFADAVNGNRFVMPEERQMSFSSLLDIVEGKIKSSAVFYVQKQCSNLMEEIPELTGDVQTHIPWMSEALGKLPDAVNFWLGEESAVTSMHKDHYENLYCVISGQKEFILLPPTDRPFIPYELYQPATYRQKDDGTFEIVDEENSPKVPWIPLDPLKPDFERFPSYRHAKALHCTVKAGEMLYLPSLWFHHVRQSHGCIAVNFWYDMEYDIKYNYFQLVEALTNAVGSL”, the “soluble on expression in E. coli” value was “soluble”. The result for “MLEHRRLFPGRRYDSRVYRSCASPMPYLLEEKLRGTAMEQRTPPSEAVISGPATPGLAEGKISAYLLDLATRTLRPPTFPPLSDSTVTAKDTVCLVGGPELAWLAVGMTPFRNITSVTLQQGELKSCSLQESMEWMRLAHLLKAAPEQVNGDGGEALALQRRLAAVRTDLVLLDLLANGHPTTGLPQVLATPFADVLDAYVDMEKEQHSAAAPSAPQNVGRLRSVLFDEEPVTGVHLEQPSLRLRLVSLQQLLVRIVRALSGAHVGLPAGNRPTPHAATLLEMTLQTHGLLCGGGVPSQAWSPTPDPADASSGGSSTAALNGTVLLDKFPRLSAEMLLQHVTYLLSNEAKQRTANAADGAGEGSDSIYLSPQRTRHFGLTGVETLLLSATQAEQVNQVLPLYVRGHTLPDEVASDITQTRNIHEAVRKTQRVLSRVLQQASQELASQSGSGTAAVDDAGHNGPHPALAHLPSHLFVRTAGARGPPPGWEYYGVHLGIKAEAMNVRYNLNASDTATLHLIDSSGSSNSGGVTATAGSEVGAESTRSGMPG” reads “not soluble”.
